Measurements as given in publication PMC5505994 (Scientific Reports, 2017).

B1: MbAhpC with deletion of the loop residues 23 to 34 (enzyme)
chain: MPLLTIGDQFPAYQLTALIGGDFTTITSDEHPGKWRVVFFWPKDFTFVCPTEIAAFSKLNDEFEDRDAQILGVSIDSEFAHFQWRAQHNDLKTLPFPMLSDIKRELSQAAGVLNADGVADRVTFIVDPNNEIQFVSATAGSVGRNVDEVLRVLDALQSDELCACNWRKGDPTLDAGELLKASA
B2: Mycobacterium bovis thioredoxin TrxC (natural protein)
chain: MTDSEKSATIKVTDASFATDVLSSNKPVLVDFWATWCGPCKMVAPVLEEIATERATDLTVAKLDVDTNPETARNFQVVSIPTLILFKDGQPVKRIVGAKGKAALLRELSDVVPNLN
B3: alkyl hydroperoxide reductase subunit C (AhpC) from Mycobacterium bovis (BCG strain), wild type (enzyme)
chain: MPLLTIGDQFPAYQLTALIGGDLSKVDAKQPGDYFTTITSDEHPGKWRVVFFWPKDFTFVCPTEIAAFSKLNDEFEDRDAQILGVSIDSEFAHFQWRAQHNDLKTLPFPMLSDIKRELSQAAGVLNADGVADRVTFIVDPNNEIQFVSATAGSVGRNVDEVLRVLDALQSDELCACNWRKGDPTLDAGELLKASA

What was measured:
SEC = target: the molecule itself; assay: SEC
[1] = target: B3; assay: NMR titration; conditions: both partners purified
[2] = target: the molecule itself; assay: negative-stain electron microscopy with 2D classification

Binder | stoichiometry N (SEC) | binding result [1] | stoichiometry N [2]
B1 | 2 | – | –
B2 | – | binds | –
B3 | 2 | – | 12
